Measurements as given in paper PMC3903436.

Key:
[1] = molecular target: MUC16 (CA125), native, membrane-bound on cancer cells (human (endogenous in OVCAR3 and HeLa)) (UniProt Q8WXI7)
[2] = molecular target: MUC16 (CA125), native, membrane-bound on cancer cells (human (endogenous in OVCAR3 and HeLa)) (UniProt Q8WXI7); remark: listed apart in the source
[3] = molecular target: MUC16 (CA125), native, membrane-bound on cancer cells (human (endogenous in OVCAR3 and HeLa)) (UniProt Q8WXI7); experiment: flow cytometry on cells; OVCAR3 cells in suspension incubated with HEK293T-derived culture supernatant containing soluble mesothelin; bound mesothelin detected with anti-FLAG mAb M2 and FITC-conjugated secondary Ab; culture medium alone as negative control

reduction of the luciferase signal (tumor burden) of intraperitoneal OVCAR3 xenografts in NOD/SCID mice at 7 days of i.p. treatment with Meso-TR3 (control and TR3 groups did not respond) [1] | share of MUC16-positive cells in the HeLa cell pool after Meso-TR3 treatment, by flow cytometry (80% to 54%; non-targeted TR3 did not shift the ratio) [2] | percent of cells positive for bound mesothelin (FLAG epitope tag) [3] | Substance
600 fold | > 30% | – | Meso-TR3 (mesothelin-TR3 fusion protein) (from UniProt P50591 39-281; P50591 39-281; P50591 39-281)
– | – | 100% | soluble mesothelin (FLAG tagged, GPI anchor-deleted mature form) (ligand)
